According to paper PMC3158092:
Where two headings read alike, the source gives them in different places.

Experiments:
YPet [1] = experiment: FRET or BRET
YPet [2] = experiment: FRET or BRET; remark: listed apart in the source

Row | Substance | FRET efficiency, oxidized (0 mmol/L DTT) (YPet [1]) | FRET efficiency, reduced (10 mmol/L DTT) (YPet [1]) | FRET efficiency, oxidized (0 mmol/L DTT) (YPet [2]) | FRET efficiency, reduced (10 mmol/L DTT) (YPet [2])
1 | CyPet | 0.27 | 0.265 | 0.371 | 0.375
2 | ECFP | 0.288 | 0.376 |  | 
